B3: 6D8 single-chain Fv (scFv) (scFv, V domains shown)
VH: QVQLQQSGDELVKPGASVKLSCTVSGFNIKDDFIHWMKQRPEQGLEWIGRIDPANGYTKYAPKFQDKATMTADTSSNTAYLQLSSLASEDAAVYYCATYGVAYWGQGTLVTVSA
VL: DIVLTQSPASLAVSLGQRATISCKASQSVDHDGDSYMNWFQQKPGQSPKLLIYAASNLESGIPARFSGSGSGTDFTLNIHPVEEEDAATYYCQQTNEDPYTFGGGTKLEIK

Assay in all cases: ITC
Background: In ITC the heat of successive injections is recorded.

The target in assay [1] is B3.
A further assay addresses 3D7-MSP2.
Another assay deals with FC27-MSP2.

Our source for the Kd values is PMC6123721 (2018).

B1: FC27 MSP2 14-34 peptide (C-terminally extended epitope, FC27 allele) (peptide)
chain: NAYNMSIRRSMANEGSNTNSV
Broadly, the Kd is the concentration at which binding is half-saturated. Low values mean a tighter complex, high ones a looser complex. As for B1, the affinity in assay [1], expressed as Kd, was 16 nM.

B2: 3D7 MSP2 14-34 peptide (C-terminally extended epitope, 3D7 allele) (peptide)
chain: NAYNMSIRRSMAESKPSTGAG
B2 registered an equilibrium dissociation constant (Kd) in assay [1] of 64 nM. Compared with the last molecule, the Kd is about 4-fold higher.

In the case of B3, the Kd with 3D7-MSP2 was 61 nM; with FC27-MSP2 it was 13 nM.

B4: MSP2 14-22 peptide (minimal 6D8 epitope of merozoite surface protein 2) (peptide)
chain: NAYNMSIRR
As to B4, the Kd in assay [1] came out at 6 nM.
